Test results: the supplement of paper PMC12042874
± gives the uncertainty stated by the source.

Experiment: amyloid nucleation score (Sup35N fusion, yeast selection) (log enrichment); library NNK3; higher = more nucleation; inactive = no reads after selection
Summary of the method: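 The nucleation score, computed with DiMSum, is the log enrichment of output over input reads, centred on the mode score of non-aggregating sequences. Sequences with under 100 input reads were dropped. Reads were generated by Illumina sequencing of plasmid inserts from psi-negative yeast with Sup35N fused to peptides of 20 random codons, induced with 100 μM copper sulfate for 24 hours and grown 7 days at 30°C on medium lacking adenine and uracil.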
RLPSREIVHCVQNSGRNPVG gave an amyloid nucleation score of 0.079 ± 0.35. With RLQNPTCAAPWCCIGKGVIR the amyloid nucleation score was 0.538 ± 0.39. With RLQVRLSLLRWFRNYGLTIA the amyloid nucleation score was “inactive”. Work on RLRRLCYSSGELDALGLCVW yielded an amyloid nucleation score of 0.261 ± 0.42. RLRVFVIGLPGALQIVGSLG showed an amyloid nucleation score of 0.005 ± 0.98. With RLSMPPRIFMPNHNCIDHAS the amyloid nucleation score was “inactive”. For RLWLVYAKPGTRRCSRRMGC, the amyloid nucleation score was “inactive”. RLYILAGGDFCNSCVVAYCR gave an amyloid nucleation score of 0.147 ± 0.36. With RLYSLSSRCNLNRATPPTKS the amyloid nucleation score was -0.041 ± 0.75. In the case of RLYVLAGITLTMTSTTKRSL, the amyloid nucleation score is reported as “inactive”. For RMFFYWDEFYSLIVGVMSGL, the amyloid nucleation score was “inactive”. With RMFGNIDCFCIIIMKVSWSG the amyloid nucleation score was “inactive”. For RMFICSQYWFVWVKLPPCGL, the amyloid nucleation score was “inactive”. With RMFWRYWYSQEMGYDRAIKG the amyloid nucleation score was “inactive”. For RMIRNDFMITLEWGDSGGYH, the amyloid nucleation score was 1.28 ± 0.097. With RMLLICNFGIVCQPMTSLQR the amyloid nucleation score was 2.24 ± 0.063. For RMMNKAADNVMNYNCVCCKS, the amyloid nucleation score was “inactive”. With RMTKTKI the amyloid nucleation score was “inactive”. For RMYLAHFCVIN, the amyloid nucleation score was 2.9 ± 0.062. In the case of RNLRVIGVTRDHGNF, the amyloid nucleation score is reported as “inactive”. With RNNMKTCNVMCIFSNECHCR the amyloid nucleation score was 2.85 ± 0.055. For RNTVSSTQEIWRLPISLEKT, the amyloid nucleation score was “inactive”. In the case of RNWERIASGHVFCFLLCIID, the amyloid nucleation score is reported as “inactive”. With RNYRGTSEIRCVPWLSSVSW the amyloid nucleation score was “inactive”. For RPAHVIICYNLSYCNKWLHS, the amyloid nucleation score was 2.04 ± 0.071. In the case of RPNVDWKMPRFCFPSQSKTG, the amyloid nucleation score is reported as “inactive”. RPRALRQTLFDRYL showed an amyloid nucleation score of 0.872 ± 0.13. In the case of RPRHDHWNDVNDATSYRYVM, the amyloid nucleation score is reported as “inactive”. Substance RPRQSTIMKNDTSSVAVSGL has an amyloid nucleation score of -0.582 ± 1.1. With RPWPYSYTNWDLCWLMAMPN the amyloid nucleation score was “inactive”. For RQADMYRYLFWGRWTVWCSW, the amyloid nucleation score was “inactive”. For RQFVIFYYSLIGHVNSWLRP, the amyloid nucleation score was “inactive”. With RQGAKVRTGGHKKQSGSSCR the amyloid nucleation score was “inactive”. RQLSSQREWECATPMRHRLA gave an amyloid nucleation score of 0.145 ± 0.51. In the case of RQRMSGQNVTNNHACLFKAR, the amyloid nucleation score is reported as “inactive”. With RRDPDPTLIPG the amyloid nucleation score was “inactive”. With RREYVVGNSFFYNY the amyloid nucleation score was 1.19 ± 0.093. In the case of RRGFFYIH, the amyloid nucleation score is reported as “inactive”. For RRGSNTGCPNVQNFVITLWQ, the amyloid nucleation score was “inactive”. In the case of RRPSQRLLGHIKVLWRNTTI, the amyloid nucleation score is reported as “inactive”. For RRSVAFLPYMSW, the amyloid nucleation score was “inactive”. In the case of RRTRYDS, the amyloid nucleation score is reported as “inactive”. In the case of RRVSMPLSGDKSRSVEGVRR, the amyloid nucleation score is reported as “inactive”. In the case of RRVSSSLIEAYYREQSRFQI, the amyloid nucleation score is reported as “inactive”. With RRYGYNLVTL the amyloid nucleation score was “inactive”. Work on RSCMQLVCTCPFTGTTSRMI yielded an amyloid nucleation score of 2.63 ± 0.055. With RSCVLMVASVSNRNRPGDVS the amyloid nucleation score was “inactive”. For RSDNESGNV, the amyloid nucleation score was “inactive”. With RSFSECWCWISKLVGYLGVT the amyloid nucleation score was “inactive”. For RSFVVESPDKYHPIVMFGTD, the amyloid nucleation score was “inactive”. In the case of RSGHRGHYKFEL, the amyloid nucleation score is reported as “inactive”. In the case of RSIGIAFLGIVGVYNMLASQ, the amyloid nucleation score is reported as -0.195 ± 0.59. In the case of RSKWRCRTLVDWRLQV, the amyloid nucleation score is reported as “inactive”. In the case of RSPYNFCKALRMGWVTNKIS, the amyloid nucleation score is reported as “inactive”. In the case of RSRKVNWCSLFVVVSHVGWK, the amyloid nucleation score is reported as “inactive”. For RSRNAAVDFCLPSSPWSSSV, the amyloid nucleation score was “inactive”. For RSRVRKRYWLTACP, the amyloid nucleation score was “inactive”. With RSSDVRQYTLMCNWSKHVVL the amyloid nucleation score was 0.089 ± 0.54. With RSSDYNRLHRSFSCNG the amyloid nucleation score was “inactive”. In the case of RSSWK, the amyloid nucleation score is reported as “inactive”. In the case of RSVAVITRCSNNGRSHKC, the amyloid nucleation score is reported as “inactive”. In the case of RSVGYRTAVMRHLYIMMN, the amyloid nucleation score is reported as “inactive”. With RSWESV the amyloid nucleation score was “inactive”. For RSWSLCIGFMFFVRNS, the amyloid nucleation score was “inactive”. For RTCAYRMESVHVVRVSAGIM, the amyloid nucleation score was “inactive”. For RTINWASCQSWLKVTSPKGL, the amyloid nucleation score was “inactive”. In the case of RTKYSQYHTGVSFDGSMHYS, the amyloid nucleation score is reported as “inactive”. For RTLTSDTHIRFLDQLSRYIW, the amyloid nucleation score was “inactive”. With RTSRT the amyloid nucleation score was “inactive”. With RTSVISISSLILALRGLYSR the amyloid nucleation score was “inactive”. For RTVELEIHGLHV, the amyloid nucleation score was “inactive”. With RTYHSLVSSEERRWKLKHCY the amyloid nucleation score was “inactive”. In the case of RVATGVVCMM, the amyloid nucleation score is reported as “inactive”. With RVCYEFKYKIKYVLD the amyloid nucleation score was -0.457 ± 0.5. For RVFGLMYSQREMCTWSVRNR, the amyloid nucleation score was 0.446 ± 0.13. For RVIGKCPHSRNCTPA, the amyloid nucleation score was “inactive”. With RVIYG the amyloid nucleation score was “inactive”. With RVMRMLSIVWFRWNEIVIFL the amyloid nucleation score was “inactive”. For RVMWYGGCCWSVIYCHRLGV, the amyloid nucleation score was “inactive”. RVNILFNFFCHTVW gave an amyloid nucleation score of 1.2 ± 0.13. In the case of RVNRCLLMMVDALYQNCTLN, the amyloid nucleation score is reported as “inactive”. For RVPCNETELCMFYRSGLLLL, the amyloid nucleation score was “inactive”. In the case of RVPIYVHKI, the amyloid nucleation score is reported as “inactive”. In the case of RVRNSCSVIGMWMLVYSRMI, the amyloid nucleation score is reported as “inactive”. In the case of RVSSHISSCGYDFCLWVEA, the amyloid nucleation score is reported as “inactive”. RVTCLFFNPRRTTNYSSSVG gave an amyloid nucleation score of 1.1 ± 0.11. With RVTTMLSFVR the amyloid nucleation score was “inactive”. RVVNRFRNCWK gave an amyloid nucleation score of 0.717 ± 0.19. In the case of RVVPL, the amyloid nucleation score is reported as “inactive”. With RVVYLHNSVRLSLDVNPIAV the amyloid nucleation score was “inactive”. Substance RWCDA has an amyloid nucleation score of -0.041 ± 0.31. In the case of RWSGHTWTCVQDRMVCICNS, the amyloid nucleation score is reported as “inactive”. For RWSHDMSCE, the amyloid nucleation score was “inactive”. In the case of RYADMSTMNAS, the amyloid nucleation score is reported as “inactive”. For RYEVPGTSFLNM, the amyloid nucleation score was “inactive”. For RYFKIPF, the amyloid nucleation score was “inactive”. With RYFPTV the amyloid nucleation score was “inactive”. With RYFVRYVRSVLTSG the amyloid nucleation score was “inactive”. For RYGTLGDLV, the amyloid nucleation score was “inactive”. For RYGTVDCIYCFMDLGVRDTG, the amyloid nucleation score was 2.46 ± 0.081. With RYLFRFYSRDVVSMMQ the amyloid nucleation score was “inactive”. For RYLILMDCFR, the amyloid nucleation score was 0.291 ± 0.23. In the case of RYLNVVPLLPCYMIWFPRVS, the amyloid nucleation score is reported as “inactive”. For RYLTNLWNYTFLINRAMLTY, the amyloid nucleation score was “inactive”. For RYMFVVRTMPV, the amyloid nucleation score was “inactive”. With RYNNYTSESGPCN the amyloid nucleation score was “inactive”. Substance RYNRDGMTYMSISFPRGPYL has an amyloid nucleation score of 1.27 ± 0.12. For RYPTDSVWGIGSGLVN, the amyloid nucleation score was “inactive”. With RYRGFNVVVLIGKDRVGSAM the amyloid nucleation score was “inactive”. In the case of RYRGMGQNMT, the amyloid nucleation score is reported as “inactive”. For RYRSVNVYWIAVLRTWSAVI, the amyloid nucleation score was “inactive”. For RYSRWLGT, the amyloid nucleation score was “inactive”. In the case of RYTNAYRQASLRV, the amyloid nucleation score is reported as “inactive”. For RYVIIMS, the amyloid nucleation score was “inactive”. In the case of RYVIV, the amyloid nucleation score is reported as “inactive”. In the case of RYYDLVSLVQARDEVCTIHD, the amyloid nucleation score is reported as “inactive”. For SAECSVPEYVHRHKVIWHGL, the amyloid nucleation score was “inactive”. For SAGISYFCDILKSTYAVFAV, the amyloid nucleation score was “inactive”. For SAGLKS, the amyloid nucleation score was “inactive”.
